One molecule from paper PMC9536601 (2022) can be followed below.

The experiment concerns the target T1, Ad5 hexon, on wild-type human adenovirus type 5 virions (human adenovirus type 5, UniProt P04133 2-952).
T1 chain: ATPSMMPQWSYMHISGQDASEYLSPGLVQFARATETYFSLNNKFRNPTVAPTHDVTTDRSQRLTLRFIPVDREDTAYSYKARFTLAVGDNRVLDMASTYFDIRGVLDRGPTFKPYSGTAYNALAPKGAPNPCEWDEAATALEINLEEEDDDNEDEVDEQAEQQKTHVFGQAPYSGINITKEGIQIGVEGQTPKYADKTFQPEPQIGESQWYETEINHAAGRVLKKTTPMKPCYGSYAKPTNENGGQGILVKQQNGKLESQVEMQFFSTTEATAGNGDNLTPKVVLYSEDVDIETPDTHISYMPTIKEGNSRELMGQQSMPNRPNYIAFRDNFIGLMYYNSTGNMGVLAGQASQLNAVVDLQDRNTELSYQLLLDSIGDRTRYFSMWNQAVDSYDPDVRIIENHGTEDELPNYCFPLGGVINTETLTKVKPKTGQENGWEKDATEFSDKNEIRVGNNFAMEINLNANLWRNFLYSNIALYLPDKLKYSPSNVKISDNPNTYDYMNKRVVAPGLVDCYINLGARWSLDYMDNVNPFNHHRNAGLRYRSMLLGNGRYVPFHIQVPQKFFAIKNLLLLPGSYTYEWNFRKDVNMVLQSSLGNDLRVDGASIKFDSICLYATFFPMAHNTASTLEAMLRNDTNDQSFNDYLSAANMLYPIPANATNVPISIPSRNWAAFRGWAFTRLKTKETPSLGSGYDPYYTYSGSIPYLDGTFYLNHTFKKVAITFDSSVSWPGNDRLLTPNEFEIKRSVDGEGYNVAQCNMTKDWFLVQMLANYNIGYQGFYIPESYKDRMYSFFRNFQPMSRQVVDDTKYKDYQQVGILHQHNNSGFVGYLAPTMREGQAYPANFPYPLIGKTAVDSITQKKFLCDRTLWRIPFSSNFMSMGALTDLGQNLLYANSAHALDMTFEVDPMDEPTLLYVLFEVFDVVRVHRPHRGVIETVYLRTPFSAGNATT
As to the kind of experiment: SPR.

B1: mouse coagulation factor X (natural protein)
chain 1: ANSFFEEFKKGNLERECMEEICSYEEVREIFEDDEKTKEYWTKYKDGDQCESSPCQNQGACRDGIGGYTCTCSEGFEGKNCELFVRKLCRLDNGDCDQFCREEQNSVVCSCASGYFLGNDGKSCISTAPFPCGKITTGRR
chain 2: VALNTSDSELDLEDALLDEDFLSPTENPIELLNLNETQPERSSDDLVRIVGGRECKDGECPWQALLINEDNEGFCGGTILNEFYILTAAHCLHQARRFKVRVGDRNTEKEEGNEMVHEVDVVIKHNKFQRDTYDYDIAVLRLKTPITFRMNVAPACLPQKDWAESTLMTQKTGIVSGFGRTHEKGRQSNILKMLEVPYVDRNTCKLSTSFSITQNMFCAGYEAKLEDACQGDSGGPHVTRFKNTYYVTGIVSWGEGCARKGKYGIYTKVTTFLKWIDRSMKARVGPTAETPRTAGPPN
modifications: gamma-carboxylated glutamate residues in the Gla domain
Turning to B1, binding was characterised by a dissociation constant (Kd) of 0.35 nM.
